According to the Human Domainome abundance scans (Beltran et al. 2025):

B1: Segment polarity protein dishevelled homolog DVL-3, residues 2 to 81; numbered along this chain, Q92997 (parent)
chain: GETKIIYHLDGQETPYLVKLPLPAERVTLADFKGVLQRPSYKFFFKSMDDDFGVVKEEISDDNAKLPCFNGRVVSWLVSA

Variants of: B1
Test: abundance fitness (aPCA) (normalised: wild type 0, dead -1); higher = more abundant; growth selection in yeast, the domain comes from the species named
Settings: Homo sapiens

Abundance fitness of substitutions, site by site:
N70: T -0.466; L -0.757; K 0.002; W -0.634; S -0.568; D 0.009; H -0.165; E -0.001; M -0.374; A -0.602; C -0.467; R -0.249; V -0.593; F -0.449; Q -0.341; Y -0.915; P -0.628
V55: Q 0.106; M -0.024; K 0.199; A -0.212; G -0.335; E -0.104; Y 0.2; C 0.198; W -0.189; H 0.365; R 0.225; P -0.895; D -0.259; F 0.204; L -0.21; T 0.195; I 0.151; S -0.148
P67: H -0.874; R -0.544; K -1.02; C -0.948; Q -0.676; S -0.646; I -1.04; E -0.432; L -0.94; Y -0.602; W -1.01; A -0.841; D -0.623; M -0.603; V -0.728; G -0.659; F -0.657
D61: K -0.984; Y -0.666; A -0.578; V -0.695; P -0.566; C -0.407; I -0.384; H -0.695; F -0.52; W -0.679; E -0.257; N -0.33; M -0.335; S -0.594; L -0.763; G -0.791; T -0.985; Q -0.082
L66: Y -0.508; S -0.747; N -0.825; C -0.923; M -0.664; D -1.44; G -0.789; E -0.493; V -0.864; T -0.772; F -0.461; K -0.644; I -0.461; P -0.588; R -0.706; A -0.822; H -0.475
N63: V -0.59; E 0.009; K -0.175; I -0.766; Q -0.113; H -0.093; L -0.615; F -0.661; R -0.238; C -0.157; Y -0.33; G -0.175; T -0.119; S -0.104; A -0.184
E57: C -0.09; Q 0.256; G -0.623; L 0.136; H -0.109; R 0.44; P -0.475; V 0.254; A -0.121; W -0.526; K 0.502; M 0.292; S -0.137; D -0.904; Y -0.222; N -0.276; T 0.441
V73: F -0.684; A -0.511; H -0.573; N -0.569; I 0.147; G -0.681; R -0.592; M -0.767; K -1.01; E -0.786; S -0.618; Q -0.477; L -0.56; W -0.589; Y -0.909; C -0.347; D -0.501
K56: A -0.32; F -0.009; W 0.282; E -0.431; N -0.678; S -0.52; C 0.103; L -0.094; H -0.216; G -0.63; D -0.738; Q -0.285; T 0.162; V 0.102; P -0.496; I 0.03; Y 0.592; R 0.041
K65: Y 0.093; R -0.032; E -0.821; N -0.139; F -0.284; G -0.47; V 0.072; P -0.135; C -0.183; S -0.195; D -0.914; I 0.263; Q 0.127; M -0.264; L -0.005; H 0.091
C68: W -0.793; M -0.22; G -0.699; I -0.049; P -0.759; N -0.117; S 0.081; E -0.645; F -0.112; Q -0.189; H 0.143; A -0.003; R -0.875; T 0.103; D -0.624; L 0.061
E58: A -0.647; G -0.733; Y -0.801; L -0.492; N -0.536; H -0.227; D -0.942; R -0.676; P -0.95; Q -0.513; T -0.456; M -0.476; V -0.561; K -0.652; S -0.62
D62: F -0.536; T -0.906; Y -0.604; P -0.575; R -0.709; G -0.818; Q -0.603; W -0.929; A -0.875; I -0.744; N -0.307; V -0.674; M -0.441; C -1.05; S -0.748; L -0.563
F69: W -0.191; M -0.201; K -0.146; S -0.163; E -0.108; H 0.001; V -0.078; R -0.272; P -0.918; L -0.214; N -0.361; G -0.605; D -0.352; A -0.613; T -0.352; Q -0.423; C -0.148; Y 0.061
S60: C 0.1; N -0.111; I -0.325; K 0.032; L -0.502; F -0.189; M -0.199; R -0.273; W -0.115; A -0.152; H 0.137; T -0.005; D -0.32; E -0.269; G -0.572; P -0.922
G71: Y -0.64; L -0.538; F -0.725; D -0.482; N -0.351; V -0.888; C -0.957; T -0.919; S -0.512; R -0.895; I -0.249; W -0.524; Q -0.763; H -0.281; A -0.782; M -1.4
R72: S 0.149; F 0.219; I 0.269; P -1.04; T 0.318; H 0.183; C 0.222; G -0.416; L 0.216; N 0.029; D -0.272; K 0.102; M 0.2; W 0.139; Q 0.243; A 0.163
V74: D -0.593; E 0.195; C -0.658; A -0.585; F -0.066
A64: G -0.647; S -0.376; R -0.359; N -0.523; C -0.346; L -0.904; Y -0.894; P -0.663; M -0.316; E -0.27; Q -0.001; I -0.414; F -0.786; W -0.672; D -0.342; V -0.506
V54: Y -0.088; Q -0.241; K -0.657; R -0.556; P 0.069; N -0.005; T -0.178; M -0.188; W 0.13; L -0.083; S -0.082
I59: Y -0.655; L -0.64; T -0.811; S -0.704; H -0.628; F -0.592; A -0.419; K -0.675; E -0.677; P -0.777; W -0.724; Q -1.11; R -0.746; C -0.593; V -0.395; N -0.736; G -0.696; D -1.21; M -0.474
